# From article PMC9445180
# Assays:
# [1] = molecular target: HTRA2^PD/PDZ-ΔLoopA (human) (UniProt O43464); experiment: SEC; HTRA proteins and their LoopA deletion mutants alone; Superdex 200 Increase 3.2/300; 200 mM NaCl, 20 mM HEPES pH 7.5, 0.25% CHAPS; size against gel filtration standard
# [2] = molecular target: HTRA3^PD/PDZ-ΔLoopA (human) (UniProt P83110); experiment: as above
Substance,stoichiometry N [1],stoichiometry N [2]
HTRA2^PD/PDZ-ΔLoopA (from UniProt O43464 134-458) (domain or fragment),3,
HTRA3^PD/PDZ-ΔLoopA (from UniProt P83110 130-453) (domain or fragment),,3
